{"source": "patent US4497799A", "about": "“Polypeptide carcinostatic agent” (Suntory Ltd., priority 1981, dated 1985)", "type_in_all_cases": "in vivo", "key": {"[1]": {"assay": "Acute toxicity in the mouse, Swiss Albino", "procedure": "(§1) Animal: mouse (ICR, Swiss Albino and BDF1)\n(§2) ICR (female, average body weight 25.0 g, age 5-6 weeks), Swiss Albino (female, average body weight 22.3 g, 5-6 weeks) and BDF1 (female, average body weight 21.5, 6 weeks) were divided into 6 groups consisting of 6 mice each, and predetermined amounts of SPH dissolved in 0.2 ml of physiological saline were administered intraperitoneally."}, "[2]": {"assay": "Acute toxicity in the mouse, BDF1", "procedure": "as §1, §2"}, "[3]": {"assay": "Acute toxicity in the mouse, ICR", "procedure": "as §1, §2"}, "[4]": {"assay": "Acute toxicity in the mouse, overall statement", "procedure": "as §1, §2\nBecause the long term toxicity of SPH is low, the condition of the survival mice after recovery is similar to that of the control."}}, "note": "Bridges are numbered along the chain shown (N, C = ends). Where no end group is shown, it is not given here.", "data": [{"sequence": "KSCCRSTLGRNCYNLCRVRGAQKLCAGVCRCKLTSSGKCPTGFPK (disulfide 3-39, 4-31, 12-29, 16-25) [SPH]", "values": [{"measurement": "No. died (numerator)", "setting": "[1]; 0.50 mg/Kg i.p.", "value": "0/6"}, {"measurement": "No. died (numerator)", "setting": "[1]; 1.00 mg/Kg i.p.", "value": "1/6"}, {"measurement": "No. died (numerator)", "setting": "[1]; 1.50 mg/Kg i.p.", "value": "4/6"}, {"measurement": "No. died (numerator)", "setting": "[1]; 2.00 mg/Kg i.p.", "value": "6/6"}, {"measurement": "LD50", "setting": "[1]; i.p.", "value": 1.33, "unit": "mg/kg"}, {"measurement": "No. died (numerator)", "setting": "[2]; 1.00 mg/Kg i.p.", "value": "0/6"}, {"measurement": "No. died (numerator)", "setting": "[2]; 1.50 mg/Kg i.p.", "value": "2/6"}, {"measurement": "No. died (numerator)", "setting": "[2]; 2.00 mg/Kg i.p.", "value": "6/6"}, {"measurement": "No. died (numerator)", "setting": "[2]; 3.00 mg/Kg i.p.", "value": "6/6"}, {"measurement": "LD50", "setting": "[2]; i.p.", "value": 1.58, "unit": "mg/kg"}, {"measurement": "No. died (numerator)", "setting": "[3]; 0.68 mg/Kg i.p.", "value": "0/6"}, {"measurement": "No. died (numerator)", "setting": "[3]; 1.36 mg/Kg i.p.", "value": "1/6"}, {"measurement": "No. died (numerator)", "setting": "[3]; 2.04 mg/Kg i.p.", "value": "4/6"}, {"measurement": "No. died (numerator)", "setting": "[3]; 2.72 mg/Kg i.p.", "value": "6/6"}, {"measurement": "LD50", "setting": "[3]; i.p.", "value": 1.81, "unit": "mg/kg"}, {"measurement": "LD50", "setting": "[4]; mouse, i.p., overall from Table 3", "value": "about 1.5 mg/Kg"}, {"measurement": "long term toxicity", "setting": "[4]; surviving mice after recovery similar to control", "value": "low"}]}]}
